Source: patent US20140056903A1 (Regeneron, published 2014)

T1: human GFRα3 expressed with a C-terminal mFc tag (human)
T1 construct: also called hGFRα3-mFc
T1 chain: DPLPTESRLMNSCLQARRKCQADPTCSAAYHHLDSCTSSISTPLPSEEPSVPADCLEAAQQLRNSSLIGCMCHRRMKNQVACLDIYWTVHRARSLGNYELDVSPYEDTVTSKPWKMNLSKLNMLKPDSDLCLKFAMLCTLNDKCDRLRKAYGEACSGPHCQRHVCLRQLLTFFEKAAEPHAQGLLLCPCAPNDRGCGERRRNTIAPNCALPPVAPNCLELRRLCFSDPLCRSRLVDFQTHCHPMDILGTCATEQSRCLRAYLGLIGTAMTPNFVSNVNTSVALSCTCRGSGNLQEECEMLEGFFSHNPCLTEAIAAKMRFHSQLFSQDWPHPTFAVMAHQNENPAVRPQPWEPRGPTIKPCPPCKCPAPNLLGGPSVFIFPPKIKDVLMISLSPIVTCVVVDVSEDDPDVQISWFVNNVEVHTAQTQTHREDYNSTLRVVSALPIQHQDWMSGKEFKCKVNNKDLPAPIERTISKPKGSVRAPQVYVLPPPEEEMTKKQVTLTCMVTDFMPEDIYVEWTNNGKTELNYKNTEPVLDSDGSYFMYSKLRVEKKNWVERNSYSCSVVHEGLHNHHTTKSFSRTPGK

T2: human GFRα2 expressed with a C-terminal human Fc tag and a hexahistidine tag (human, UniProt O00451 22-441, limits assumed)
T2 construct: bought protein; also called hGFRα2-hFc-6His; hGFRα2-hFc-6his
T2 sequence (looked up): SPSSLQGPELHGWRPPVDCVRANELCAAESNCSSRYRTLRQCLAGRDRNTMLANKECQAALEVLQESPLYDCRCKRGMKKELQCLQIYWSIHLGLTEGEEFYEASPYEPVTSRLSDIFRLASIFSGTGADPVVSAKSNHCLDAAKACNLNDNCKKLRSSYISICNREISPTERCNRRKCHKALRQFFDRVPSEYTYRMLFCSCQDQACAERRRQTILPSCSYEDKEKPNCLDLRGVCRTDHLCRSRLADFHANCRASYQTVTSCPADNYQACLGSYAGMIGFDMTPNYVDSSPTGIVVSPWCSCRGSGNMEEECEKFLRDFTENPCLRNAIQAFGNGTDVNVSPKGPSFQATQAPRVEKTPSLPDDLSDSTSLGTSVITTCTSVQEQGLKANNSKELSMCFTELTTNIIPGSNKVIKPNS

B1: H4H2294S (antibody, human IgG4, V domains shown)
VH: EVQLVESGGGLVQPGGSLRLSCAASGFTFSSYAMSWVRQAPGKGLEWVSVISGSGGSTYYADAVKGRFTISRDNSKHTLYLQMNSLRAEDTAVYYCTKPSSYSSSNFYYGMDVWGQGSTVTVSS
VL: DIQLTQSPSSVSASVGDRVTITCRASQGISSWLAWYQQKPGKAPKLLIYAASSLQSGVPSRFSGSGSGTDFTLTISSLQPEDFATYYCQQTNSFPFPFGPGTKVDIK
notes: human IgG4 Fc (H4H)
B2: H4H2342P (antibody, human IgG4, V domains shown)
VH: EVQLLESGGGLVQPGGSLRLSCAASGFTFSTYAMSWVRQAPGKGLEWVSAIRGNGVNTYYGDSMKGRFTISRDNSKDTLYLQMNSLRAEDTAVYYCAKNKWELLVFEYWGQGTLVTVSS
VL: DIQMTQSPSSLSASVGDRVTITCRASQDISNYLAWYQQKPGKVPKLLIYAASTLQSGVPFRFSGSGSGTDFTLTISSLQPEDVATYYCQKYNSAPPFGPGTKVDIK
notes: human IgG4 Fc (H4H)
B3: H4H2352S (antibody, human IgG4, V domains shown)
VH: EVQLVQSGAEVKKPGASVKVSCKASGYTFTNYGITWVRQAPGQGLEWMGWISAYNGNTGYAQKFQGRVTMTTDTSTSTAYMELRSLRSDDTAVYYCAREDYDFWRAFDIWGQGTMVTVSS
VL: EIVLTQSPGTLSLSPGERATLSCRASQSVSSTYLAWLQQKPGQAPRLLIYGASSRATGIPDRFSGSGSGTDFTLTINRLEPEDFAVYYCQQYAYSPYTFGQGTKLEIK
notes: human IgG4 Fc (H4H); also called H4H2352S-1
B4: H4H2243N2 (antibody, human IgG4, V domains shown)
VH: QVQLVQSGAEVKKPGASVKVSCKASGYTFTSYGIIWVRQAPGQGLEWMGWISGYNGNTNYAQNLQGRVTMTTDTSTTTAYMELRSLRSDDTAVYYCARWGIATRPYYYYGMDVWGQGTTVTVSS
VL: DIQMTQSPSSLSASVGDRVTITCRASQDITNYLAWFQQKPGKAPKSLIYAASSLQSGVPSKFSGSGSGTDFTLTISSLQPEDFATYYCQQYNSYPPTFGPGTKVDIK
notes: human IgG4 Fc (H4H)
B5: H4H2212N (antibody, human IgG4, V domains shown)
VH: EVQLLESGGGLVQPGGSLRLSCAASGFTFSSYAMSWVRQGPGKGLEWVSGISGSGGSTYNADSVKGRFTISRDNSKNTLYLQMNSLRAEDTAVYYCAKDSGTYWYYFDYWGQGILVTVSS
VL: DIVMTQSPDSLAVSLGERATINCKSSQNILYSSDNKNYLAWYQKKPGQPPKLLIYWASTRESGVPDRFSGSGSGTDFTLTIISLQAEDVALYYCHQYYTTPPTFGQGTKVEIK
notes: human IgG4 Fc (H4H)
B6: H4H2292S (antibody, human IgG4, V domains shown)
VH: EVQLVESGGGVVQPGRSLRLSCAASGFTFSSYGMHWVRQAPGKGLEWVSFIWYDGSNKYYADSVKGRFTISRDNSKNTLYLQMNSLTAEDTAVYYCARRGILTGTTAFDIWGQGTMVTVSS
VL: DIQMTQSPSSLSASVGDRVTITCRASQSISSYLNWYQQKPGKAPKLLIYAASSLQSGVPSRFSGSGSGTDFTLTIRSLIPEDFATYYCQQTYNTPFTFGPGTKVEIK
notes: human IgG4 Fc (H4H)

Legend:
[1] = molecular target: T1, human GFRα3 expressed with a C-terminal …; assay: SPR, Ab captured, 25C
Summary of the method: (§1)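 First, each antibody was captured on an anti-mouse or anti-human IgG chip surface. Next, antigen was injected in 3-fold series, 200–7.4 nM for mmh and 100–3.7 nM for hFc constructs, with association monitored up to 4 min and dissociation up to 20 min. Finally, the traces were fitted to a 1:1 model.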

[2] = molecular target: T3, human GFRα3 expressed with a C-terminal myc-myc-hexahistidine tag (human, UniProt O60609 32-374, biotinylated (sites not given) in ELISA format 2 and in the Octet cross-competition; not in SPR); assay: SPR, Ab captured, 25C
T3 construct: also called hGFRα3-mmh; hGFRα3-mmH
Summary of the method: as §1

[3] = molecular target: T2, human GFRα2 expressed with a C-terminal …; assay: BLI Octet, antigen on anti-hFc tips, 100 ug/mL Ab
Description: The ability of anti-GFRα3 antibodies to bind to GDNF-family receptors was assessed using an Octet Red biosensor (Fortebio, Inc.). Antibodies were tested for binding to either human GFRα1 expressed with a C-terminal human Fc tag and a hexahistidine tag (hGFRα1-hFc-6His, R&D Systems #714-GR), human GFRα1 expressed with only a C-terminal human Fc tag (hGFRα1-hFc; SEQ ID: 376), human GFRα2 expressed with a C-terminal human Fc tag and a hexahistidine tag (hGFRα2-hFc-6His, R&D Systems #613-FR), human GFRα3 expressed with a C-terminal human Fc tag (hGFRα3-hFc, SEQ ID:371), or an irrelevant human Fc tagged protein. Antigens were captured onto anti-human Fc sensor tips from 10 ug/mL solutions for 5 minutes. The coated sensor tips were then blocked with a 100 ug/mL solution of irrelevant human Fc antibodies for 5 minutes. Blocked sensor tips were then submerged into wells containing […] of each anti-GFRα3 antibody or buffer alone for 10 minutes. The experiment was performed at 25° C. with a flow rate of 1000 rpm using HBST+BSA buffer (10 mM HEPES, 150 mM NaCl, 3 mM EDTA, 0.05% w/v Surfactant P20, 0.1 mg/mL BSA, pH 7.4). The binding response (measured in units of nm) at each step of the experiment was monitored and recorded.

T3 sequence (O60609 other isoform, or with tags, fused parts or gaps limits assumed): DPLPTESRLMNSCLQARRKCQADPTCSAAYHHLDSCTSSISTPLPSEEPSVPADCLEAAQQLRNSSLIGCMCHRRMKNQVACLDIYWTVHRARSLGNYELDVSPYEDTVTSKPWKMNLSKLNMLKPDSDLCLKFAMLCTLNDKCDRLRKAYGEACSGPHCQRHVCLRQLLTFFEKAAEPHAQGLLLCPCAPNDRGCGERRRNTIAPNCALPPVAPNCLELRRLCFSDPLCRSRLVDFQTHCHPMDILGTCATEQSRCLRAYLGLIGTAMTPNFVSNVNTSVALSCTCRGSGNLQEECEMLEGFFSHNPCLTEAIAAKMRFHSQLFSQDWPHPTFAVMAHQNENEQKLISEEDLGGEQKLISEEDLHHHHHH

Row | Binder | Kd [1] [pM] | koff [1] [s⁻¹] | kon [1] [M⁻¹ s⁻¹] | t1/2 [1] [days] | Kd [2] [nM] | koff [2] [s⁻¹] | kon [2] [M⁻¹ s⁻¹] | t1/2 [2] [min] | Bound (nm) [3] [nm]
1 | B1 | 4.63 | 5.63e-06 | 1.22e+06 | 1.43 | 0.142 | 7.99e-05 | 563000 | 145 | 0.06
2 | B2 | ≤ 1.51 | ≤ 1e-06 | 661000 | 8.02 | 1.1 | 0.000204 | 186000 | 57 | 0.12
3 | B3 | ≤ 0.467 | ≤ 1e-06 | 2.14e+06 | 8.02 | 0.082 | 5.81e-05 | 709000 | 199 | 0.04
4 | B4 |  |  |  |  | 2.92 | 0.00078 | 267000 | 15 | 0.06
5 | B5 |  |  |  |  |  |  |  |  | 0.02
6 | B6 | ≤ 1.87 |  | 534000 | 8.02 | 0.483 | 5.19e-05 | 108000 | 223 | 0.05
